# Laboratory results reported in patent US20050272093A1 (ROCKEFELLER UNIVERSITY, published 2005).
# Molecular target: T1, radiolabeled agitoxin2 (D20C conjugated with tritiated N-ethylmaleimide) (Leiurus quinquestriatus hebraeus, UniProt P46111 1-38)
# T1 construct: mature
# Assay: filter binding assay with tritiated agitoxin2
binder,measurement,value
wild type kcsa K+ channel from Streptomyces lividans (other) MPPMLSGLLARLVKLLLGRHGSALHWRAAGAATVLLVIVLLAGSYLAVLAERGAPGAQLITYPRALWWSVETATTVGYGDLYPVTLWGRLVAVVVMVAGITSFGLVTAALATWFVGREQERRGHFVRHSEKAAEEAYTRTTRALHERFDRLERMLDDN,binding result,no binding
